Experimental data as given in the RNAGym collection of RNA variant scans (doi:10.1073/pnas.2313332121).

B1: TPR t1 (parent)
chain: GACCAAUCUGCCCUCAGAGCUCGAGAACAUCUUCGGAUGCAGAGGAGGCAGGCUUCGGUGGCGCGAUAGCGCCAACGUCCUCAACCUCCAAUGCAUCCCACCACAUGAUGAUGCCUGAAGAGCCUUGGUUUUUUG

Variants of: B1
Assay: polymerase ribozyme fitness, log enrichment relative to wild type (log ratio); higher = more active; in vitro selection for triplet polymerase activity
In short: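 Each subunit of a heterodimeric triplet polymerase ribozyme was represented by a PCR-built, transcribed mutant library that underwent triplicate single-round in vitro selection with frozen incubation at −7 °C. Extended constructs were recovered by gel excision, streptavidin-bead capture and RT-PCR, and Illumina sequencing of input and output libraries kept genotypes with ≥10 input reads and ≥1 read per output. Fitness is the logarithm of genotype enrichment relative to wild-type enrichment, from inverse-variance-weighted replicate averages, with a logarithm base of 2.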

Variant	polymerase ribozyme fitness (log ratio)
U9G C104U C124U	1.88
U9C G39C G128C	-1.84
U9A C13A G42C A43U A100U	-3.76
C8U G36U G39A G48U C72A U106A	-1.69
U9G G45U	-0.0404
C8U U87C C102U U112A G122A	-0.31
U9G C80U C98U G110U	-3.68
U9G C62A U92A C104U	-4.41
C8U G69U G93C	0.148
U9G C94A	-0.976
C8U G47C G77C U129G	-3.36
U9C G36A C85U C123A	0.00121
U9A A43C C82G A108G C123G U131A	-5.6
U9C G39U G48A C53G A91G	-2.06
U9C A41C U87C C114U	-0.644
U9C A41C C53G A68G C73U	-5.47
C8U G71A C88U	-0.224
U9A G122A	0.926
U9A G17U U78C C82G C86G C124U U125C	-0.551
U9C U112G	0.223
C8U C34G	-5.47
C8U C34U	-3.66
U9G C56U G65C A105U U109C	-6.39
U9A C31U G44U G52U A111U	-5.37

Variant	polymerase ribozyme fitness (log ratio)
U9G G63C	-0.0322
U9C C40G U55A C76A C88G	-4.6
C8U G60U U106A G122A	0.855
U9A G19C A41U G63C	-3.34
U9G C20A U54C C76U G128C	-5.03
U9G C72U C102A G122A U125A	-1.75
U9G C56A C79G	-1.55
U9C U38G G61C C101A	-3.61
U9A G10U G44U G60A C89G G127C	-2.63
C8U C13U A43G	-1.25
C8U U21A G69C U106C U112A	-0.365
C8U G23C C34U G61A G93A U109C	-6.59
C8U G44U G52A G63C A84U C85A	-6.83
C8U C20A C53U U54A C89G	-4.08
U9G G51C C56G C62U C80G A119U	-0.0854
U9C G23U C31U A41G G52A C82G A83C A121C	-6.19
U9C G10C G17A G63A U81C U92A C94U U109G A119G	-7.69
C8U C22U A119U	-2.76
U9C C13G	0.844
U9G G77U C123U	1.93
U9C C56G C62G	-3.04
C8U G47C G57A U92C	-4.38
C8U G39A C40A C62U G93U A111C	-0.367
C8U C20U U78C C82G C123U	0.246

Variant	polymerase ribozyme fitness (log ratio)
U9G G19A A37U C70U U78A	-4.73
U9G A26U G39U U78C C82G	-4.7
U9A C12U A27C C53U G63A A83C	-4.89
U9A C20U A43U A50C U87A	-1.81
C8U C56U C82A C97A G117C	-7.35
U9G C76U	0.331
U9G C72G C86A	-1.02
U9G C62G C82A	-0.591
C8U U78A G93U C101G C104A C124U	-3.7
U9A G39C C94U	-0.376
C8U U59G U96A G110U	-2.31
U9G A74U	0.26
C8U G61U C70G	-4.76
U9A G63U U78A G93C C124G G128C	-3.75
U9G G10A U14G A46G G48A A66G C70U	-4.44
U9A C40U A46U C56U C115G U131G	-1.77
U9C G60A U130A	0.434
U9C C72A A83U A90G U131C	0.697
U9C G122A	-0.428
U9G G39U	-0.00423
U9A U14G C73G G117C	-1.75
U9G C34G A121U	-4.18
C8U C104U	0.275
U9G C86A C114A	-0.649

Variant	polymerase ribozyme fitness (log ratio)
U9C U130G	-0.0168
U9A G107U G117C	-6.35
C8U G117U	-1.38
U9A A24G G42A G52C C72A	-3.17
C8U C20A A26C G60C	-5.68
U9G C62A	-0.542
U9G G60U C62U C72G	-2.01
U9G G19U G45U C114A	1.58
C8U C115U G117A	-0.753
U9C C49A C85U G120C	1.08
C8U C13U A103C C115A A119G	-2.38
C8U U14A A41C C64U G93U C115U U125G U132A U133G	-6.39
C8U U32A G60C C97A C99A G122U	-5.09
U9C G47C U132C	-1.22
U9A G23A G25C A43C G51A A68G U106A C123U	-6.69
U9C C49A C86U C94A G113A	-1.52
U9G C20A U59A	-3.12
U9G A37U A43U C73A C98A C124A	-7.17
U9C G113A	-0.364
C8U G17C G36C	-4.86
U9C G58A A100U	-0.581
U9G A108G	-1.95
U9C A16U G52U	-0.423
U9A C31G C73G C85A U109C	-5.57

Variant	polymerase ribozyme fitness (log ratio)
U9G A46U U55G A103C	-4.6
C8U C64U	0.265
C8U G61A C70U U87G C89G	-5.05
U9G G110C	-4.11
U9G A18C C40G A91C G93C C94A A105G	-5.58
U9A U116C	0.0652
U9G A18C C56G C72A G120A U130A	-2.29
U9G C12A U54A G93A	0.0472
C8U G57U U78A C104A	-1.43
U9G U21A	-0.191
C8U C56U G61A A95U G120A	-6.04
U9C G63U C104U	-0.467
U9A G36C	0.19
C8U G63C C102U	-2.5
U9A G71U C94A C123G	0.355
U9A G52C C94U C101A	-1.78
U9G U38G A105U	-2.64
U9C A26G A27U U54A A74G C82G	-6.24
U9C G19U U81C U130C	-3.09
U9G G48U U87G C115G	0.077
C8U G52A A68G U81A G120U	-4.33
C8U U92A G93A	-4.46
U9A C15A G39U C49A C56U A121U	0.6
U9A U32A A37U A46C C56A A111G	-4.29

Variant	polymerase ribozyme fitness (log ratio)
U9G A95C	-1.41
C8U G45A	0.126
U9A C13A G51U C94G	-4.04
C8U C40U G52A C79G	-0.696
U9G A26G C70G A84U U112A	-4.4
U9C C13A C102U A111C	-0.646
U9G A18U C40U	-0.788
C8U U78C U92G C115A A119U	-0.985
C8U C102A	-1.17
U9C C31A G44A G47U G69U C88U A118U U133G	-4.68
U9C C49A A91C C104U	-1.34
C8U C15G G63U U87A	-3.32
U9C G60A	0.405
U9C G19A U32A C88U C123A	-5.37
U9G G61U G77A C97G U130C	-5.47
U9C A41C C53G	-0.677
U9A G60A C70A C98U C101G C123G	-6.71
U9C C28G G52U	-3.99
U9G G57A U112A C123U G128A	-3.19
U9A A103G	-3.9
U9A C49A C56U C73A	-0.459
C8U U92C	-0.788
C8U U59G A75U U81G C124U	-2.31
U9C G117A	0.892

Variant	polymerase ribozyme fitness (log ratio)
U9G A27U	-3.6
U9A C73U G113A	-0.0138
U9C C72U C98U G120A	0.967
U9A G52U C88U C124A	0.944
U9C G10A	0.0311
C8U U14G G45A G69A	-2.72
U9C C20A A37G G47A U87G G120A G122U	-3.6
U9C C40G G69A C101U	-2.3
U9A G35U C72U G77A C124G U126A	-5.65
C8U C20U U38G C62G G113U	-3.27
U9A G44C C70G	-4.48
U9A C73U	0.98
U9A G71U C104U	0.24
U9C C79U	0.385
U9C A68G C86A C99A	-6.98
U9C G10A G93A	-0.147
C8U C13U A68G U129G	-3.57
U9C C11U G47C U96G	-3.05
U9G A37U C40U G45A C72U C104U	-0.789
U9C A68G	-2.42
U9A U96G	-0.342
U9G U14A G77U U92G C124U	-3.63
C8U U14A A46U C56U	-1.92
